Measured values published in article PMC11499270 (Nature, 2024).

Key:
[1] = target: human insulin receptor A (human) (UniProt P06213); assay: radioligand binding
[2] = pigs; previously observed; cited from earlier work

| Substance | fold increase in hIR-A affinity, 20 vs 0 mM glucose, without albumin [1] [fold] | half-life after s.c. administration [2] [h] |
| --- | --- | --- |
| NNC2215 (from UniProt P01308 90-110; P01308 25-53) (ligand) | 6.8 | – |
| insulin detemir | – | 6.5 |
